One molecule from patent CN113773389A can be followed below.

In the assay the target is T1, 人胸苷激酶1(TK1) (human) (UniProt P04183).
T1 sequence (looked up): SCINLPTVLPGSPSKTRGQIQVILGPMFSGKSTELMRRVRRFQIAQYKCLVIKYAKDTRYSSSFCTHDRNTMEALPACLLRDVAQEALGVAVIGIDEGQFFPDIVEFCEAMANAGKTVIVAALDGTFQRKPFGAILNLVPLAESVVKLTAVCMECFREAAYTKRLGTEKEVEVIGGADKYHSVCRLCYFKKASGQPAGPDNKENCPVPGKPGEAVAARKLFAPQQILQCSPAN
Put plainly: cell-based or functional assay.

B1: 鼠抗人胸苷激酶1-IgG单克隆抗体(SSTK小鼠杂交瘤细胞株057M) (antibody, V domains shown)
VH: EVKLVESGGGLAQPGGSLRLSCATSGFTFSDYYMNWVRQPPGKAFEWLGFIRNKEYGNTAEYNPSLKGRFTISRDDSQSILYLQMNTLRVEDSAIYYCARDGAFDYWGQGTSLTVSS
VL: DIVMTQSPASLAVSLGQRATISCRASKSVSTSGYSYMHWNQQKPGQPPKLLIYLASNLESGVPARFSGSGSGTDFTLNIHPVEEEDAATYYCQESREFPTVGGGTNLEIK
In the case of B1, the 肿瘤细胞凋亡频率 (Annexin V-FITC/PI), KATO-Ⅲ, 10μg/ml antibody, 72 h is 3.49 倍; the 肿瘤细胞凋亡频率 (Annexin V-FITC/PI), KATO-Ⅲ(STEM), 10μg/ml antibody, 72 h is 2.59 倍; the 肿瘤细胞凋亡频率 (Annexin V-FITC/PI), NCI-N87, 10μg/ml antibody, 72 h was 1.46 倍; the 肿瘤细胞凋亡频率 (Annexin V-FITC/PI), NCI-N87(STEM), 10μg/ml antibody, 72 h is 2.21 倍. This molecule registered a 肿瘤细胞生存活力 (CCK-8), KATO-Ⅲ, 100μg/ml antibody, 72 h of 56.3%; a 肿瘤细胞生存活力 (CCK-8), KATO-Ⅲ(STEM), 100μg/ml antibody, 72 h of 66.6%; a 肿瘤细胞生存活力 (CCK-8), NCI-N87, 100μg/mL antibody, 72 h of 85%; a 肿瘤细胞生存活力 (CCK-8), NCI-N87(STEM), 100μg/mL antibody, 72 h of 66.6%.
